Results: US20100331256
Where “and” joins values, the source holds several entries; their conditions need not be identical. Equal values may be shown once.

Legend:
[1] = molecular target: T1, Analog V: CNP22, K4G, 3,4-dichloro-F7
T1 chain: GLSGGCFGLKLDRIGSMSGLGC

[2] = molecular target: T2, Analog E: CNP22, D-F7 (D-Phe)
T2 chain: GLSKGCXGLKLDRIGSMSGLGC

[3] = molecular target: T3, Analog M: CNP22, N-methyl-L9, N-methyl-L11
T3 chain: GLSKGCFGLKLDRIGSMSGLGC

PEG1K-CNP22 = molecular target: T4, PEG1K-CNP22
T4 chain: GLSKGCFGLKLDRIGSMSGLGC

[4] = molecular target: T5, Analog BB: Heptanoic acid (N-term.)-CNP22, G1E
T5 chain: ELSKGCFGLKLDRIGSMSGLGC

PEO12-CNP22 = molecular target: T6, PEO12-CNP22
T6 chain: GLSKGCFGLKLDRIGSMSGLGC

PEO12-R-CNP22(K4R) = molecular target: T7, PEO12-R-CNP22(K4R)
T7 chain: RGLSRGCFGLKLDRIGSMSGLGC

[5] = molecular target: T8, Analog CS: GQEHPNARKYKGANPK-CNP22 (modified CNP37) (not fully specified)
T8 chain: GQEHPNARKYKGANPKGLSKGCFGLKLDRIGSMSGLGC

PEG2K-CNP17 = molecular target: T9, PEG2K-CNP17
T9 chain: CFGLKLDRIGSMSGLGC

[6] = molecular target: T10, Analog CL: GVPQVSTSTGANQQ-CNP22, K4R (HSA fragment)
T10 chain: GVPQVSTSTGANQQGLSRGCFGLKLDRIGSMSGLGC

[7] = molecular target: T11, Analog A: CNP22, C6-CH2-NH (reduced carbonyl)
T11 chain: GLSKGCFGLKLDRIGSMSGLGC

PEG2K-CNP22 = molecular target: T12, PEG2K-CNP22
T12 chain: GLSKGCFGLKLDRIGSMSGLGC

[8] = molecular target: T13, Analog F: CNP22, t-butyl-G8
T13 chain: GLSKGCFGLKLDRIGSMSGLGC

[9] = molecular target: T14, Analog L: CNP22, N-methyl-L9, N-methyl-L11, N-methyl-L20
T14 chain: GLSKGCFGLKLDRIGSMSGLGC

[10] = molecular target: T15, Analog H: CNP22, Beta-2-F7 (3-amino-2-phenylpropionyl)
T15 chain: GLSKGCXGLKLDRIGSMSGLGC

[11] = molecular target: T16, Analog N: D-CNP22 (all D-amino acids)
T16 chain: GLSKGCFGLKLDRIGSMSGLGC

[12] = molecular target: T17, PEO4-(PEO12)3 (branched)-CNP22
T17 chain: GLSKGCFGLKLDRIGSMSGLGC

[13] = molecular target: T18, Analog AW: Heptanoic acid (N-term.)-CNP22, G1E, K4E
T18 chain: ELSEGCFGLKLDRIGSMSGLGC

[14] = molecular target: T19, Analog CC: DLRVDTKSRAAWAR-CNP22
T19 chain: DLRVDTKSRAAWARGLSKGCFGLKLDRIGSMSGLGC

PEO24-CNP22 = molecular target: T20, PEO24-CNP22
T20 chain: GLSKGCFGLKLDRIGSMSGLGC

Analog BA: ER-CNP22, K4R = molecular target: T21, Analog BA: ER-CNP22, K4R
T21 chain: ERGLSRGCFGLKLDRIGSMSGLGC

PEG5K-CNP22 = molecular target: T22, PEG5K-CNP22
T22 chain: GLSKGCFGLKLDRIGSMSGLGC

[15] = molecular target: T23, Analog BJ: CNP22, K4R, G15N
T23 chain: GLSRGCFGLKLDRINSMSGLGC

[16] = molecular target: T24, Analog B: CNP22, N-methyl-F7 (methylated amide)
T24 chain: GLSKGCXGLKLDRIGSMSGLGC

Analog P: CNP22, K4G = molecular target: T25, Analog P: CNP22, K4G
T25 chain: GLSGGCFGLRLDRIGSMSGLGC

PEO12-GANPR-CNP22(K4R) = molecular target: T26, PEO12-GANPR-CNP22(K4R)
T26 chain: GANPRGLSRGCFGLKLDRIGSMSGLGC

Analog AZ: R-CNP22, K4R = molecular target: T27, Analog AZ: R-CNP22, K4R
T27 chain: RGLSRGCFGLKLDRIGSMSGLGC

[17] = molecular target: T28, Analog AC: CNP22, K4R, G8T
T28 chain: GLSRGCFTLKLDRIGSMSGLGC

PEO24-GANRR-CNP22(K4R) = molecular target: T29, PEO24-GANRR-CNP22(K4R)
T29 chain: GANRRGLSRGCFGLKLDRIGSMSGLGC

[18] = molecular target: T30, Analog BL: QEHPNARKYKGANKK-CNP22 (CNP37)
T30 chain: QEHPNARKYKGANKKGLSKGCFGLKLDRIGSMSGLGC

[19] = molecular target: T31, Analog AY: GANRR-CNP22, K4R (CNP-27)
T31 chain: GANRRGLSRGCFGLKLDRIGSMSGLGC

PEG20K-CNP22 = molecular target: T32, PEG20K-CNP22
T32 chain: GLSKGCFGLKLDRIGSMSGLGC

[20] = molecular target: T33, Analog CG: GANSS-CNP22, K4R
T33 chain: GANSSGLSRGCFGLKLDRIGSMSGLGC

Analog BM: CNP53 = molecular target: T34, Analog BM: CNP53
T34 chain: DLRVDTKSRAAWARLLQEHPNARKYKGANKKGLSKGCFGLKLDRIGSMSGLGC

Analog AH: CNP22, K4R = molecular target: T35, Analog AH: CNP22, K4R
T35 chain: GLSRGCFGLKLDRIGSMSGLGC

[21] = molecular target: T36, Analog AV: Pentanoic acid (N-term.)-CNP22, G1E, K4E (not fully specified)
T36 chain: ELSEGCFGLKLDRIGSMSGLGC

[22] = molecular target: T37, Analog CF: GQPREPQVYTLPPS-CNP22 (IgG1(Fc) fragment)
T37 chain: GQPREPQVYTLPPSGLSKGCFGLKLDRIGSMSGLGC

[23] = molecular target: T38, Analog K: CNP22, N-methyl-L9, N-methyl-L20
T38 chain: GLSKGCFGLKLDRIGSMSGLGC

[24] = molecular target: T39, Analog CK: GQPREPQVYTGANQQ-CNP22, K4R (IgG1 fragment)
T39 chain: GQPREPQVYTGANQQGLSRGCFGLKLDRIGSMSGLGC

[25] = molecular target: T40, Analog G: CNP22, 3-chloro-F7
T40 chain: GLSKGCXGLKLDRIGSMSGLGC

(PEO12)-Biotin-CNP22 = molecular target: T41, (PEO12)-Biotin-CNP22
T41 chain: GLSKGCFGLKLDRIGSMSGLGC

PEO12-GANRR-CNP22(K4R) = molecular target: T42, PEO12-GANRR-CNP22(K4R)
T42 chain: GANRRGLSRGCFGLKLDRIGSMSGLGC

[26] = molecular target: T43, Analog X: CNP22, K4G, 3-methyl-F7
T43 chain: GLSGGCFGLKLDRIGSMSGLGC

[27] = molecular target: T44, wild-type C-type natriuretic peptide 22 (CNP22)
T44 chain: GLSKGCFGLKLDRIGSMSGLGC

[28] = molecular target: T45, Analog BK: CNP22, K4R, G15S
T45 chain: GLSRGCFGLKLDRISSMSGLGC

[29] = molecular target: T46, Analog AT: CNP22, G1E, K4E
T46 chain: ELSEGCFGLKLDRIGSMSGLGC

PEG1K-GANRR-CNP22(K4R) = molecular target: T47, PEG1K-GANRR-CNP22(K4R)
T47 chain: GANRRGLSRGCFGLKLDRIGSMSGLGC

B1: recombinant human neutral endopeptidase (NEP) (protein)
chain: DDGICKSSDCIKSAARLIQNMDATTEPCTDFFKYACGGWLKRNVIPETSSRYGNFDILRDELEVVLKDVLQEPKTEDIVAVQKAKALYRSCINESAIDSRGGEPLLKLLPDIYGWPVATENWEQKYGASWTAEKAIAQLNSKYGKKVLINLFVGTDDKNSVNHVIHIDQPRLGLPSRDYYECTGIYKEACTAYVDFMISVARLIRQEERLPIDENQLALEMNKVMELEKEIANATAKPEDRNDPMLLYNKMTLAQIQNNFSLEINGKPFSWLNFTNEIMSTVNISITNEEDVVVYAPEYLTKLKPILTKYSARDLQNLMSWRFIMDLVSSLSRTYKESRNAFRKALYGTTSETATWRRCANYVNGNMENAVGRLYVEAAFAGESKHVVEDLIAQIREVFIQTLDDLTWMDAETKKRAEEKALAIKERIGYPDDIVSNDNKLNNEYLELNYKEDEYFENIIQNLKFSQSKQLKKLREKVDKDEWISGAAVVNAFYSSGRNQIVFPAGILQPPFFSAQQSNSLNYGGIGMVIGHEITHGFDDNGRNFNKDGDLVDWWTQQSASNFKEQSQCMVYQYGNFSWDLAGGQHLNGINTLGENIADNGGLGQAYRAYQNYIKKNGEEKLLPGLDLNHKQLFFLNFAQVWCGTYRPEYAVNSIKTDVHSPGNFRIIGTLQNSAEFSEAFHCRKNSYMNPEKKCRVW
With B1 the NEP cleavage t1/2 [1] was 1.13 h, the NEP cleavage t1/2 [2] was 2.17 h and the NEP cleavage t1/2 [3] was > 2.67 h. The NEP cleavage t1/2 (PEG1K-CNP22) was > 2.67 h, the NEP cleavage t1/2 [4] was 0.75 h and 1.08 h and the NEP cleavage t1/2 (PEO12-CNP22) was ≥ 2.67 h. The NEP cleavage t1/2 (PEO12-R-CNP22(K4R)) was ≥ 2.67 h, the NEP cleavage t1/2 [5] was > 2.67 h and the NEP cleavage t1/2 (PEG2K-CNP17) was > 2.67 h. For the same protein, the NEP cleavage t1/2 [6] was > 2.67 h, the NEP cleavage t1/2 [7] was 0.917 h and the NEP cleavage t1/2 (PEG2K-CNP22) was > 2.67 h. The NEP cleavage t1/2 [8] was 1.33 h, the NEP cleavage t1/2 [9] was 0.5 h and the NEP cleavage t1/2 [10] was 1.33 h. The NEP cleavage t1/2 [11] was > 2.67 h, the NEP cleavage t1/2 [12] was > 2.67 h and the NEP cleavage t1/2 [13] was < 0.333 h. The NEP cleavage t1/2 [14] was > 2.67 h, the NEP cleavage t1/2 (PEO24-CNP22) was > 2.67 h and the NEP cleavage t1/2 (Analog BA: ER-CNP22, K4R) was 1.5 h. The NEP cleavage t1/2 (PEG5K-CNP22) was > 2.67 h, the NEP cleavage t1/2 [15] was 2.5 h and the NEP cleavage t1/2 [16] was 1.33 h. For the same protein, the NEP cleavage t1/2 (Analog P: CNP22, K4G) was 1.13 h, the NEP cleavage t1/2 (PEO12-GANPR-CNP22(K4R)) was 1.33 h and the NEP cleavage t1/2 (Analog AZ: R-CNP22, K4R) was ≥ 2.67 h. For the same protein, the NEP cleavage t1/2 [17] was 1.33 h, the NEP cleavage t1/2 (PEO24-GANRR-CNP22(K4R)) was > 2.67 h and the NEP cleavage t1/2 [18] was > 2.67 h. For the same protein, the NEP cleavage t1/2 [19] was 1.08 h, the NEP cleavage t1/2 (PEG20K-CNP22) was > 2.67 h and the NEP cleavage t1/2 [20] was 1.58 h. For the same protein, the NEP cleavage t1/2 (Analog BM: CNP53) was > 2.67 h, the NEP cleavage t1/2 (Analog AH: CNP22, K4R) was 1.33 h and the NEP cleavage t1/2 [21] was 2 h. For the same protein, the NEP cleavage t1/2 [22] was > 2.67 h, the NEP cleavage t1/2 [23] was 1.33 h and the NEP cleavage t1/2 [24] was ≥ 2.67 h. The NEP cleavage t1/2 [25] was 2.25 h, the NEP cleavage t1/2 ((PEO12)-Biotin-CNP22) was 2.33 h and the NEP cleavage t1/2 (PEO12-GANRR-CNP22(K4R)) was > 2.67 h. The NEP cleavage t1/2 [26] was 1.13 h, the NEP cleavage t1/2 [27] was 1.33 h and the NEP cleavage t1/2 [28] was ≥ 2.67 h. For the same protein, the NEP cleavage t1/2 [29] was 1 h and the NEP cleavage t1/2 (PEG1K-GANRR-CNP22(K4R)) was > 2.67 h.
